The values that follow come from article PMC10184318, “The fission yeast cytokinetic ring component Fic1 promotes septum formation” (Biology Open, 2023).

The test addresses T1, Fic1-MBP (S. pombe, UniProt O94701 1-272).
T1 construct: Fic1 of S. pombe; The printed name puts MBP after Fic1; source: E. coli, purified (standard biochemistry techniques)
T1 sequence (looked up): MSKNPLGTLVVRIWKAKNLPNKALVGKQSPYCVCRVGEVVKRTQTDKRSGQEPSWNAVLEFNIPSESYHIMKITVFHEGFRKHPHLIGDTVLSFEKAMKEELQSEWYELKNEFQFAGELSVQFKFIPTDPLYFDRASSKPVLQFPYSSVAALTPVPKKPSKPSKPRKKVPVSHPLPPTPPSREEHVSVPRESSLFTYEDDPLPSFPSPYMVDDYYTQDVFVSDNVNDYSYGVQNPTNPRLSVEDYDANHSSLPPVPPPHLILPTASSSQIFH
Briefly: pull-down; in vitro binding assay with recombinant proteins, one bead-bound and one soluble; 20 mM Tris pH 7.4, 150 mM NaCl; 4°C, 1 h; three washes; SDS-PAGE and Coomassie staining. The settings on record: both partners purified.

B1: Cyk3-SH3-GST (aa1-66) (domain or fragment, S. pombe, UniProt O14302 1-66, looked up)
chain: MSIPKQLPCMVRALYAWPGEREGDLKFTEGDLIECLSIGDGKWWIGRHINTNTQGIFPSNFVHCLD
notes: Cyk3 of S. pombe, SH3 domain, residues 1-66; The printed name puts GST after the SH3 domain (Cyk3-SH3-GST, against GST-Cdc15-SH3), which hints at a C-terminal GST; also called Cyk3's SH3 domain; source: E. coli, purified (standard biochemistry techniques)
For the molecule B1, the binding result is given as “binds”.
